Laboratory results: US20160030526A1 (GENERAL HOSPITAL, published 2016)

Molecular target: monovalent murine IL-2 fusion toxin (DT390-mIL-2-6xHis)
Assay: flow cytometry on CTLL-2 cells

B1: murine IL-2 receptor on murine CD25+ CTLL-2 cells (receptor)
chain 1: ELCLYDPPEVPNATFKALSYKNGTILNCECKRGFRRLKELVYMRCLGNSWSSNCQCTSNSHDKSRKQVTAQLEHQKEQQTTTDMQKPTQSMHQENLTGHCREPPPWKHEDSKRIYHFVEGQSVHYECIPGYKALQRGPAISICKMKCGKTGWTQPQLTCVDEREHHRFLASEESQGSRNSSPESETSCPITTTDFPQPTETTAMTETFVLTMEYKVAVASCLFLLISILLLSGLTWQHRWRKSRRTI
chain 2: AVKNCSHLECFYNSRANVSCMWSHEEALNVTTCHVHAKSNLRHWNKTCELTLVRQASWACNLILGSFPESQSLTSVDLLDINVVCWEEKGWRRVKTCDFHPFDNLRLVAPHSLQVLHIDTQRCNISWKVSQVSHYIEPYLEFEARRRLLGHSWEDASVLSLKQRQQWLFLEMLIPSTSYEVQVRVKAQRNNTGTWSPWSQPLTFRTRPADPMKEILPMSWLRYLLLVLGCFSGFFSCVYILVKCRYLGPWLKTVLKCHIPDPSEFFSQLSSQHGGDLQKWLSSPVPLSFFSPSGPAPEISPLEVLDGDSKAVQLLLLQKDSAPLPSPSGHSQASCFTNQGYFFFHLPNALEIESCQVYFTYDPCVEEEVEEDGSRLPEGSPHPPLLPLAGEQDDYCAFPPRDDLLLFSPSLSTPNTAYGGSRAPEERSPLSLHEGLPSLASRDLMGLQRPLERMPEGDGEGLSANSSGEQASVPEGNLHGQDQDRGQGPILTLNTDAYLSLQELQAQDSVHLI
chain 3: WSSKVLMSSANEDIKADLILTSTAPEHLSAPTLPLPEVQCFVFNIEYMNCTWNSSSEPQATNLTLHYRYKVSDNNTFQECSHYLFSKEITSGCQIQKEDIQLYQTFVVQLQDPQKPQRRAVQKLNLQNLVIPRAPENLTLSNLSESQLELRWKSRHIKERCLQYLVQYRSNRDRSWTELIVNHEPRFSLPSVDELKRYTFRVRSRYNPICGSSQQWSKWSQPVHWGSHTVEENPSLFALEAVLIPVGTMGLIITLIFVYCWLERMPPIPPIKNLEDLVTEYQGNFSAWSGVSKGLTESLQPDYSERFCHVSEIPPKGGALGEGPGGSPCSLHSPYWPPPCYSLKPEA
notes: whole, on cells; also called murine CD25+ IL-2 receptor
binding result: binds
